Measurements as given in the supplement of paper PMC10065799, “High-throughput profiling of sequence recognition by tyrosine kinases and SH2 domains using bacterial peptide display” (eLife, 2023).

Assays:
c-Src = assay: phosphorylation enrichment, bacterial display (enrichment ratio); higher = better substrate or ligand; peptides without Tyr show the background
c-Abl (mouse) = assay: as above
AncSZ = assay: as above
FGFR1 = FGFR1 (UniProt P11362); assay: as above
MERTK = MERTK (UniProt Q12866); assay: as above
Fyn = Fyn (UniProt P06241); assay: as above
Sequence of Fyn (P06241 whole entry, looked up): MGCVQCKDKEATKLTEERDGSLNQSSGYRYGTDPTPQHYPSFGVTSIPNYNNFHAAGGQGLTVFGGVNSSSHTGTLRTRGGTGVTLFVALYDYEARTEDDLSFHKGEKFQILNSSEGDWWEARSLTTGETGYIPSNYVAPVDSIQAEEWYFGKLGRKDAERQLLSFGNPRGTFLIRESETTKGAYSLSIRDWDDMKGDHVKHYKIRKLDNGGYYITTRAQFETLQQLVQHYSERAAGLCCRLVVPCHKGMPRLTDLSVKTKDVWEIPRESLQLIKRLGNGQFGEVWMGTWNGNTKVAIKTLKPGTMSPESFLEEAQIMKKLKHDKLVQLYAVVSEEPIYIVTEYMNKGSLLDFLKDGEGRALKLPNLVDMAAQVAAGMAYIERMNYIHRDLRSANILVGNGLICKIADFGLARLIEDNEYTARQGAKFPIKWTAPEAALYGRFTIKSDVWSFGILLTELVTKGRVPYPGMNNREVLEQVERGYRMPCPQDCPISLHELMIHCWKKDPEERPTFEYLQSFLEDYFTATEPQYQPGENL

Jak2 = Jak2 (UniProt O60674); assay: as above
Sequence of Jak2 (O60674 whole entry, looked up): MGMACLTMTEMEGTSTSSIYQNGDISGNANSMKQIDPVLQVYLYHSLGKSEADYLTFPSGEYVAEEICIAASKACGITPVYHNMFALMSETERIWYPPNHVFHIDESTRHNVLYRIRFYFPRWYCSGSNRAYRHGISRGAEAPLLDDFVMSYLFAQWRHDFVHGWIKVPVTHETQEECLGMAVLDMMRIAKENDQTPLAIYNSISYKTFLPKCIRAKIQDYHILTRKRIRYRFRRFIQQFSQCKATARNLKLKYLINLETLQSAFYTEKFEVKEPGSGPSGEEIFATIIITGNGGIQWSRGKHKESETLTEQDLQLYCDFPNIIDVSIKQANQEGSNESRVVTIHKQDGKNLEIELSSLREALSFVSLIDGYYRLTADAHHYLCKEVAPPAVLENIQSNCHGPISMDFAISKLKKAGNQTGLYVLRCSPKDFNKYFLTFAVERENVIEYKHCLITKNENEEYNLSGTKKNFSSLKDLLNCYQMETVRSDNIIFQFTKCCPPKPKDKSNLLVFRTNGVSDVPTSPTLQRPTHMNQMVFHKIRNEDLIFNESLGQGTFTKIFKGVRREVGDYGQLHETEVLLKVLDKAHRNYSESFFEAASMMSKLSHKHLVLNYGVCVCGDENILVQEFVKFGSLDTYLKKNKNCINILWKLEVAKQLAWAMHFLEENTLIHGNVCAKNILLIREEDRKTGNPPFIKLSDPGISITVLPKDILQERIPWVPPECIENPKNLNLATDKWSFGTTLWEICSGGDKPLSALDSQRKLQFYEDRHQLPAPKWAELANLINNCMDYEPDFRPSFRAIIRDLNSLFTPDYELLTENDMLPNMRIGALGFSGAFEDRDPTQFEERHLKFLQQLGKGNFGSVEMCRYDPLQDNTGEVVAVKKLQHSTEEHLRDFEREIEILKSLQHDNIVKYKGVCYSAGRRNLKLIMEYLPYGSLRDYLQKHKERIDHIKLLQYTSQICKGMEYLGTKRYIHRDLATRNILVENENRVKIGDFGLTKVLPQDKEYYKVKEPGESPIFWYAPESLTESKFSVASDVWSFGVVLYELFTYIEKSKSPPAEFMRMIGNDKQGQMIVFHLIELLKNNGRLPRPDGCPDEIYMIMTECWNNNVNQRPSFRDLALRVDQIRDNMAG

Fes = Fes (UniProt P07332); assay: as above
Fer (mouse) = assay: as above
FGFR3 = FGFR3 (UniProt P22607); assay: as above
Sequence of FGFR3 (P22607 whole entry, looked up): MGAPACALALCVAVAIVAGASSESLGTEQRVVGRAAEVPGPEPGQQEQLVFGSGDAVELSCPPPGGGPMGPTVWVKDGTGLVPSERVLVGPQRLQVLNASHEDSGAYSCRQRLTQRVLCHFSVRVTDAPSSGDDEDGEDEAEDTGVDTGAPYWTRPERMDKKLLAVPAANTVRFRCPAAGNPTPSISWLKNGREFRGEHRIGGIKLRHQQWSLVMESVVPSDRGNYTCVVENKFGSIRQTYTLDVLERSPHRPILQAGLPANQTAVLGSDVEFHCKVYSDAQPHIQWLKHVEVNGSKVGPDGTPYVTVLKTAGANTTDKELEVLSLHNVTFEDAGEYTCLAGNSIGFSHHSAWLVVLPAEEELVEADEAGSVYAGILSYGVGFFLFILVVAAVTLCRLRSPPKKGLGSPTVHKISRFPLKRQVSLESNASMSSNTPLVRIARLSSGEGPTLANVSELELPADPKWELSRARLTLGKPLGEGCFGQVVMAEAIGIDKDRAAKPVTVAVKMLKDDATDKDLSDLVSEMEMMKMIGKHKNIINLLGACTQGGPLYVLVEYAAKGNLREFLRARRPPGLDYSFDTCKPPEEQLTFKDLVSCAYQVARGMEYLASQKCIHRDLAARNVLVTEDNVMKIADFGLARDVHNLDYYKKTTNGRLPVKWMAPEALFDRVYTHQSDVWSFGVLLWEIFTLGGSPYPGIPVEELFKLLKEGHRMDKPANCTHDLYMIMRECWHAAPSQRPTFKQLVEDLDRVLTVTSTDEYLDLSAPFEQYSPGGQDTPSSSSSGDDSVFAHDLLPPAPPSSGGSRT

EPHB1 = EPHB1 (UniProt P54762); assay: as above
Sequence of EPHB1 (P54762 whole entry, looked up): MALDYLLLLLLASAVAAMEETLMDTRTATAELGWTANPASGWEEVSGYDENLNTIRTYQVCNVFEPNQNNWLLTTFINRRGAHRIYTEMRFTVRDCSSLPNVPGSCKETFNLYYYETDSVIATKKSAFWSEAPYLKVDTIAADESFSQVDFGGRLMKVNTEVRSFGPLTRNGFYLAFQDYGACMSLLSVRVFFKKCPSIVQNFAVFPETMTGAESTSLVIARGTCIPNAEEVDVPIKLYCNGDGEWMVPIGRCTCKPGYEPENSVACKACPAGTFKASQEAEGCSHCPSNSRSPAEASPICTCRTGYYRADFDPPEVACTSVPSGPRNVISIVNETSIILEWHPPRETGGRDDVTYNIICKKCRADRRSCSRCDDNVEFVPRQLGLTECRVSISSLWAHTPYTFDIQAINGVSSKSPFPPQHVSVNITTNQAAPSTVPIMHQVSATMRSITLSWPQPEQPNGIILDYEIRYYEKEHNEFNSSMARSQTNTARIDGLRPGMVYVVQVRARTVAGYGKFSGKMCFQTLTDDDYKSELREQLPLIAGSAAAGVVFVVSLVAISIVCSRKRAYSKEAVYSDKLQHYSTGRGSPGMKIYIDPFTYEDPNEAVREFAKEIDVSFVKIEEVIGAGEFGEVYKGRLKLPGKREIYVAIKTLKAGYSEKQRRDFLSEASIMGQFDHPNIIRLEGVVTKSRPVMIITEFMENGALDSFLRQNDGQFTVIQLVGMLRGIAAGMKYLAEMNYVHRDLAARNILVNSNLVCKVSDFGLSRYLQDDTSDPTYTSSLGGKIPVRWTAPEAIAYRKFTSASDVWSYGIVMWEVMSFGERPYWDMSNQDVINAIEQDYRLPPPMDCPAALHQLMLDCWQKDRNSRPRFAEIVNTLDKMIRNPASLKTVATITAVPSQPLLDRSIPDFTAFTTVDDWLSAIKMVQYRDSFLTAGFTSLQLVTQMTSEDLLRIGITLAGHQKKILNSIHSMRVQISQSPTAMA

Hck = Hck (UniProt P08631); assay: as above
Sequence of Hck (P08631 whole entry, looked up): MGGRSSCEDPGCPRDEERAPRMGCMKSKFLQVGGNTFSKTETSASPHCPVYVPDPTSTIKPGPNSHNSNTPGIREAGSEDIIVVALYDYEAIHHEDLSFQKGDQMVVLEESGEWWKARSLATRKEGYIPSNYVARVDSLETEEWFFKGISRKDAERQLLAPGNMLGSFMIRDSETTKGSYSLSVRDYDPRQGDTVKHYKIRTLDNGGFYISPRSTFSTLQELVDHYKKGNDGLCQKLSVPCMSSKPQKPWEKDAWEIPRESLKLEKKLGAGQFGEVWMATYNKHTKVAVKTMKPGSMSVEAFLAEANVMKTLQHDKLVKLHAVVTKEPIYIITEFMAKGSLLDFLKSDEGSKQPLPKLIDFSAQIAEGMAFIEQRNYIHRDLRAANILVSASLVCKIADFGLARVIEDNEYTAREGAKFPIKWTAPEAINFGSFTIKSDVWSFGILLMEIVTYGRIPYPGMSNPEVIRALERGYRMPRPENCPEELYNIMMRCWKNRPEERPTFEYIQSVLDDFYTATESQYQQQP

EPHB2 = EPHB2 (UniProt P29323); assay: as above
Sequence of EPHB2 (P29323 whole entry, looked up): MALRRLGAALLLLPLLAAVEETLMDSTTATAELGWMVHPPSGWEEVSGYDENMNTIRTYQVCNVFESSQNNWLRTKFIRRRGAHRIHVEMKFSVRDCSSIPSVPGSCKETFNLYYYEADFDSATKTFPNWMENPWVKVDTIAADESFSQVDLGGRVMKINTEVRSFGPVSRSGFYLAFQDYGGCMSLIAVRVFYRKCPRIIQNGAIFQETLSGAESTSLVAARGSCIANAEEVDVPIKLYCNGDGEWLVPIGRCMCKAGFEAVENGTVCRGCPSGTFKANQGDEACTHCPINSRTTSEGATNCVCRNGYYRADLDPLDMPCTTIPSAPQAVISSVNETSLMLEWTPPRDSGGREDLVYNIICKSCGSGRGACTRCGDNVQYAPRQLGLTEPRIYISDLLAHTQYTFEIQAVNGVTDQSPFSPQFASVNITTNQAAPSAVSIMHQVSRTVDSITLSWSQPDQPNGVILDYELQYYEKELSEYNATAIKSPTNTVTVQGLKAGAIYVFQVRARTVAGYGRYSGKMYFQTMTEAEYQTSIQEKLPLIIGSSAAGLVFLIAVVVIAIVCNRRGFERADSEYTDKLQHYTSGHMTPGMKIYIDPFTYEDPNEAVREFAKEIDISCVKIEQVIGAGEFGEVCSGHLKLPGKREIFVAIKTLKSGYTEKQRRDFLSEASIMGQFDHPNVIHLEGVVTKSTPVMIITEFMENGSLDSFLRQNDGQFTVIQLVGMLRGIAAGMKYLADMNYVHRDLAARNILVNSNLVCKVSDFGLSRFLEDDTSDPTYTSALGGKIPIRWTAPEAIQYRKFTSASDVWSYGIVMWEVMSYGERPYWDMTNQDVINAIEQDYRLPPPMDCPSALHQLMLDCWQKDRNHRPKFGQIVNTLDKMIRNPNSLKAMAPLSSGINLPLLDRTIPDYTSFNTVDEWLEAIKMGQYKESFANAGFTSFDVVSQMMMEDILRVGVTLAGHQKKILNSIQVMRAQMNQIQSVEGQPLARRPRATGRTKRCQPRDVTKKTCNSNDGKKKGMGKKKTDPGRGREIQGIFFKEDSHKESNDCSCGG

SHP2-C SH2 = assay: SH2 binding enrichment of the phosphorylated peptide, bacterial display (enrichment ratio); higher = better substrate or ligand; peptides without Tyr show the background
c-Src SH2 = assay: as above
Grb2 SH2 = Grb2 SH2 (UniProt P62993); assay: as above
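For SH2 binding enrichment of the phosphorylated peptide, bacterial display in this document: peptide library displayed on the E. coli surface as eCPX fusions, selected cells deep-sequenced, score is each peptide's frequency after selection divided by its frequency in the input.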
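For phosphorylation enrichment, bacterial display in this document: 11-residue human phosphosite peptides and single-mutation variants displayed on the E. coli surface, counted by deep sequencing, each peptide's frequency after selection divided by its frequency in the unselected input library; frequency after pTyr selection over input frequency; kinase dosed for 20-30% of maximal phosphorylation in three min.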

Row | Sequence | SH2 binding enrichment (SHP2-C SH2) | SH2 binding enrichment (c-Src SH2) | SH2 binding enrichment (Grb2 SH2) | phosphorylation enrichment (c-Src) | phosphorylation enrichment (c-Abl (mouse)) | phosphorylation enrichment (AncSZ) | phosphorylation enrichment (FGFR1) | phosphorylation enrichment (MERTK) | phosphorylation enrichment (Fyn) | phosphorylation enrichment (Jak2) | phosphorylation enrichment (Fes) | phosphorylation enrichment (Fer (mouse)) | phosphorylation enrichment (FGFR3) | phosphorylation enrichment (EPHB1) | phosphorylation enrichment (Hck) | phosphorylation enrichment (EPHB2)
1 | KRRGPYETSPS [PLPP7_Y172] | 0.377 | 0.493 | 0.549 | 0.614 | 0.526 | 0.599 | 0.414 | 0.405 | 0.491 | 0.539 | 0.495 | 0.446 | 0.397 | 0.345 | 0.399 | 0.403
2 | KRTFEYEADKN [DENND2B_Y396] | 0.702 | 0.576 | 0.747 | 0.39 | 0.61 | 0.947 | 0.507 | 0.403 | 0.471 | 0.781 | 1.03 | 0.496 | 0.576 | 0.545 | 0.483 | 0.526
3 | KSLFHHRQFSA [CPS1_Y1491_Y1491H_YF] | 0.92 | 0.521 | 0.843 | 0.279 | 0.431 | 0.448 | 0.353 | 0.36 | 0.403 | 0.407 | 0.543 | 0.297 | 0.373 | 0.418 | 0.297 | 0.295
4 | KVALPYKPYFY [POLE_Y100] | 1.17 | 0.966 | 1.25 | 0.858 | 0.681 | 0.778 | 0.47 | 0.556 | 0.465 | 0.962 | 0.963 | 0.346 | 0.658 | 0.589 | 0.485 | 0.438
5 | KVASVYEALGF [NT5C_Y65_P68L] | 0.667 | 0.613 | 0.787 | 6.25 | 0.697 | 0.88 | 0.607 | 7.59 | 10.3 | 0.595 | 0.989 | 4.62 | 0.574 | 8.22 | 8.84 | 4.25
6 | KVPAIYGVDTR [CPS1_Y162] | 0.707 | 0.466 | 0.841 | 0.782 | 0.525 | 0.61 | 0.398 | 0.54 | 0.642 | 0.615 | 0.665 | 0.422 | 0.469 | 0.334 | 0.701 | 0.383
7 | KYGTNYRVGSS [CPO_Y278] | 1.23 | 0.835 | 1.01 | 0.389 | 0.466 | 0.438 | 0.338 | 0.377 | 0.416 | 0.403 | 0.549 | 0.308 | 0.362 | 0.307 | 0.415 | 0.388
8 | LADMNYVHRDL [EPHB2_Y742] | 0.667 | 0.305 | 0.676 | 0.721 | 0.923 | 1.51 | 0.714 | 0.796 | 0.481 | 0.916 | 1.6 | 0.933 | 0.801 | 0.762 | 0.916 | 0.565
9 | LARDMCDKEYY [MET_Y1230_Y1230C] | 0.593 | 0.952 | 0.714 | 0.849 | 1.06 | 1.64 | 0.995 | 0.84 | 0.902 | 2.02 | 1.89 | 0.897 | 0.828 | 0.853 | 0.834 | 1.01
10 | LAVVDYMRRQK [ATM_Y1915] | 0.652 | 0.531 | 0.675 | 0.553 | 0.604 | 0.674 | 0.373 | 0.513 | 0.413 | 0.605 | 0.655 | 0.374 | 0.437 | 0.285 | 0.453 | 0.337

More lines, main results first:

Row | SH2 binding enrichment (SHP2-C SH2) | SH2 binding enrichment (c-Src SH2) | SH2 binding enrichment (Grb2 SH2) | Sequence | phosphorylation enrichment (c-Src) | phosphorylation enrichment (c-Abl (mouse)) | phosphorylation enrichment (AncSZ) | phosphorylation enrichment (FGFR1) | phosphorylation enrichment (MERTK) | phosphorylation enrichment (Fyn) | phosphorylation enrichment (Jak2) | phosphorylation enrichment (Fes) | phosphorylation enrichment (Fer (mouse)) | phosphorylation enrichment (FGFR3) | phosphorylation enrichment (EPHB1) | phosphorylation enrichment (Hck) | phosphorylation enrichment (EPHB2)
11 | 0.673 | 0.489 | 0.856 | KRIKLYNQEND [RPGRIP1L_Y448] | 0.353 | 0.612 | 0.643 | 0.412 | 0.439 | 0.377 | 0.502 | 0.681 | 0.388 | 0.459 | 0.306 | 0.379 | 0.387
12 | 0.855 | 0.585 | 1.03 | KSEMSCIDGEK [SORBS1_Y485_Y485C] | 0.423 | 0.793 | 0.862 | 0.522 | 0.406 | 0.431 | 0.658 | 1.06 | 0.44 | 0.686 | 0.491 | 0.447 | 0.567
13 | 0.717 | 0.537 | 0.87 | KTAFSYTSSST [SIM1_Y356_P352T] | 0.432 | 0.456 | 0.665 | 0.426 | 0.44 | 0.41 | 0.497 | 0.721 | 0.399 | 0.475 | 0.329 | 0.353 | 0.482
14 | 0.773 | 0.676 | 0.903 | KTEMLYHLTAR [XRCC2_Y59] | 0.965 | 0.897 | 1.09 | 0.821 | 2.06 | 0.73 | 0.928 | 0.982 | 0.419 | 0.858 | 0.53 | 0.977 | 0.541
15 | 1.77 | 1.25 | 1.27 | KWHREYNFKFV [RICTOR_Y835_S837F_YF] | 0.429 | 0.729 | 0.859 | 0.474 | 0.436 | 0.372 | 0.937 | 0.944 | 0.622 | 0.585 | 0.488 | 0.432 | 0.531
16 | 0.634 | 0.525 | 0.818 | LAIEGYVVVCK [RHO_Y136_R135G] | 0.526 | 0.991 | 1.5 | 0.707 | 0.528 | 0.604 | 1.09 | 1.41 | 0.459 | 1.02 | 0.75 | 0.747 | 0.826
17 | 0.881 | 0.877 | 1.47 | LCRFGYANTSE [SI_Y1233_YF] | 0.405 | 0.625 | 0.756 | 0.455 | 0.423 | 0.419 | 0.706 | 0.893 | 0.381 | 0.581 | 0.454 | 0.422 | 0.529
